Among the data in patent publication US20200317768A1 (published 2020) are Kd values, retold here.

In general, Kd refers to the constant that tells how readily two partners part at equilibrium.

Test [1] deals with T1, Human latent myostatin (human, UniProt O14793 25-266; O14793 267-375).
T1 construct: also called human myostatin latent form
T1 sequence 1: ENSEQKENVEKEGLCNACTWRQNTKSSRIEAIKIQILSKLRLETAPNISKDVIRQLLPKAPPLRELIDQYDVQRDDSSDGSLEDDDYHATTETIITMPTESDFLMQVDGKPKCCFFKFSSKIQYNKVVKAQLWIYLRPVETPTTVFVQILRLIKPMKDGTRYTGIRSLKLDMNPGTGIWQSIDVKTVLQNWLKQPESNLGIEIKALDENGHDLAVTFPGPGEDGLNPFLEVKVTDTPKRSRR
T1 sequence 2: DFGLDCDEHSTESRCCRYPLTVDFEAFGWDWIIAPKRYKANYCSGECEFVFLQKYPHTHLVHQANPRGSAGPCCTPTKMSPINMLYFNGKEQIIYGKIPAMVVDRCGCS
The test is described as follows: SPR (BIACORE T200) 37C, pH 5.8, antibody captured by ProA/G.

Test [2] addresses T2, Mouse latent myostatin (mouse, UniProt O08689 26-267; O08689 268-376).
T2 construct: Latent form = complex of two propeptides and the mature dimer
T2 sequence 1: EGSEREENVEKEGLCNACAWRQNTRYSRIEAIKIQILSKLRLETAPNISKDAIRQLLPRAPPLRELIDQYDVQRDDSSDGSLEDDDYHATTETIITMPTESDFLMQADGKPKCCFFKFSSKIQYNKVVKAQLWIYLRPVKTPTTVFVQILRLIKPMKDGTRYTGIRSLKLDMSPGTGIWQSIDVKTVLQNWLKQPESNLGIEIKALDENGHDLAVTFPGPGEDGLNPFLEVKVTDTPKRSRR
T2 sequence 2: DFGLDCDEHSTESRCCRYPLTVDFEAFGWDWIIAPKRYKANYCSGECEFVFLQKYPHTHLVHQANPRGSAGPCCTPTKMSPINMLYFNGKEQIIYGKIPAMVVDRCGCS
The description is as above.

In test [3] the target is T3, Cynomolgus monkey latent myostatin (cynomolgus monkey, UniProt Q95J86 25-266; Q95J86 267-375).
T3 construct: Latent form = complex of two propeptides and the mature dimer; also called Cyno latent myostatin
T3 sequence 1: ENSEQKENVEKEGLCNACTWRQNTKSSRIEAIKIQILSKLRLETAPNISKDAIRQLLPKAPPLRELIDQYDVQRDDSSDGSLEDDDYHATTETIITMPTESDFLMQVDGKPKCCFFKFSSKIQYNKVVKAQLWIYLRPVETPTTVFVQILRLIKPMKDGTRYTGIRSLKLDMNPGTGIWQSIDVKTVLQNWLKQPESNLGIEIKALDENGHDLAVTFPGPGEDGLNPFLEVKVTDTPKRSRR
T3 sequence 2: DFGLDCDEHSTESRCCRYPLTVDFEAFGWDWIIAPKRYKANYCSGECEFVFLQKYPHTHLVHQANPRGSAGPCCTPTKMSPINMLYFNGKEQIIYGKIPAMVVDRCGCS
Described as above.

Test [4] concerns the target T4, human FcγRIIb extracellular domain with C-terminal His-tag (human, UniProt P31994 43-217).
T4 construct: also called human FcgRIIb
T4 sequence: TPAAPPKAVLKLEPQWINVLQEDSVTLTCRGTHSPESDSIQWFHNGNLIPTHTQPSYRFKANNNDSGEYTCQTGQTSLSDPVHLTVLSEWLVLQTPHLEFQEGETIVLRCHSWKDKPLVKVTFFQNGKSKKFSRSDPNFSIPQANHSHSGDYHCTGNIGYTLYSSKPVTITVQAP
The test is described as follows: SPR (BIACORE), antibody captured, FcgR analyte. The method, then: (§1) The kinetic analysis of interactions between these antibodies and FcγR was carried out using BIACORE® T200 or BIACORE® 4000 (GE Healthcare). HBS-EP+ (GE Healthcare) was used as the running buffer, and the measurement temperature was set to 25° C. A chip produced by immobilizing Protein A. Protein A/G or mouse anti-human IgG kappa light chain (BD Biosciences) onto a Series S Sensor Chip CM4 or CM5 (GE Healthcare) by the amine-coupling method was used. […] After the measurement, the antibody captured on the chip was washed off by allowing reaction with 10 mM glycine-HCl, pH1.5 and 25 mM NaOH so that the chip was regenerated and used repeatedly. The sensorgrams obtained as measurement results were analyzed by the 1:1 Langmuir binding model using the BIACORE® Evaluation Software to calculate the binding rate constant ka (L/mol/s) and dissociation rate constant kd (l/s), and the dissociation constant KD (mol/L) was calculated from these values. […] Regarding such interactions, KD values were calculated using the following 1:1 binding model described in BIACORE® T100 Software Handbook BR1006-48 Edition AE.
(§2) The behavior of interacting molecules according to the 1:1 binding model on BIACORE® can be described by Equation 1: Req=C·R max/(KD+C)+RI, wherein, Req is a plot of steady-state binding levels to analyte concentration. C is concentration, RI is bulk refractive index contribution in the sample, and Rmax is analyte binding capacity of the surface. When this equation is rearranged, KD can be expressed as Equation 2: KD=C·Rmax/(Req−RI)−C. KD can be calculated by substituting the values of Rmax, RI, and C into Equation 1 or Equation 2. From the current measurement conditions, RI=0, C=2 μmol/L can be used.
(Surface plasmon resonance follows binding to a sensor surface in real time, without labels.)

Test [5] concerns the target T5, cynomolgus monkey FcγRIIa3 extracellular domain with C-terminal His-tag (cynomolgus monkey).
T5 construct: also called cyno FcgRIIa3; cynoFcγRIIa3
T5 chain: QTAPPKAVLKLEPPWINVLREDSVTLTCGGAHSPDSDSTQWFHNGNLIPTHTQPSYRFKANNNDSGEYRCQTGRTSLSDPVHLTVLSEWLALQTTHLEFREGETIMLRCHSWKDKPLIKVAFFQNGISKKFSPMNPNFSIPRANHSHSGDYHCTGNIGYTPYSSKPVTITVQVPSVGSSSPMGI
The test is described as follows: SPR (BIACORE), antibody captured, FcgR analyte. The method, then:
as §1, §2

B1: MS_M103205H795-SG1/M103202L889-SK1 (antibody, human IgG1, kappa)
heavy: not shown
light: DIVMTQSPATLSLSPGERATLSCTSSQSVYHANWLSWFQQKPGQPPKLLIYWASTLAYGVPSRFSGSGSGTDFTLTISSLQPEDAATYYCAGGYGGGRYAFGQGTKVEIKRTVAAPSVFIFPPSDEQLKSGTASVVCLLNNFYPREAKVQWKVDNALQSGNSQESVTEQDSKDSTYSLSSTLTLSKADYEKHKVYACEVTHQGLSSPVTKSFNRGEC
notes: also called MS1032LO06-SG1
As to B1, the equilibrium dissociation constant (Kd) came to 34 nM in test [1], 22.6 nM in test [2] and 25.9 nM in test [3].

B2: MS_M103205H795-SG1/M103202L889-SK1 (antibody, human IgG1, kappa)
heavy: not shown
light: DIVMTQSPATLSLSPGERATLSCTSSQSVYHANWLSWFQQKPGQPPKLLIYWASTLAYGVPSRFSGSGSGTDFTLTISSLQPEDAATYYCAGGYGGGRYAFGQGTKVEIKRTVAAPSVFIFPPSDEQLKSGTASVVCLLNNFYPREAKVQWKVDNALQSGNSQESVTEQDSKDSTYSLSSTLTLSKADYEKHKVYACEVTHQGLSSPVTKSFNRGEC
notes: Parent antibody of the Fc variants; also called MS1032LO06-SG1
As for B2, the dissociation constant (Kd) came out at 4600 nM in test [4] and 17000 nM in test [5].
